Numbering of substitutions follows the chain as printed.

This passage reports binding result and Kd results from patent US20130260455A1 (ONCOMED PHARMACEUTICALS, published 2013).

The target of assay [1] is T1, hN2 12-12 (human Notch2 amino acids 454-493 fused to hFc) (human, UniProt Q04721 454-493).
T1 construct: not shown: constant region of human IgG (hFc)
T1 chain: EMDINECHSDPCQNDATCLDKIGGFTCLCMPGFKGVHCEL
Briefly: capture ELISA: hN2-hFc from HEK-293 supernatant on anti-human Fc plates, 59R1 Fab, HRP anti-human Fab [lower graph]. As for the experimental part:
(§1) The binding of anti-Notch2/3 antibodies to supernatant from HEK 293 cells transfected with sequences encoding recombinant human Notch2 Fc fusion proteins comprising the full length human Notch2 protein or various human Notch2 deletion constructs containing various deletions of EGF repeats one to twelve were tested by ELISA. HEK-293 cells were transiently transfected with pcDNA 3.1 (Invitrogen) with hNotch2 cDNA's encoding for the indicated amino acids fused to the constant region of human IgG (hFc). Supernatants were harvested 48 hours later. To capture hN2-hfc proteins, 96 well plates were first coated with goat anti-human Fec gamma specific IgG (Jackson Immunochemicals, #109-006-098) at 100 ng per well in sodium bicarbonate buffer overnight at 4°. Plates were washed and blocked in 5% bovine serum/PBS-Tween-20. Supernatants were added to plates and incubated at room temperature for 1 hour. Plates were washed in PBS-T. 59R1 Fab was added at 10 μg/ml in 5% serum/PBS-T and incubated at room temperature for 1 hour. Plates were washed in PBS-T. Fab binding was detected by goat anti-human Fab specific antibody conjugated to horseradish peroxidase (Thermo. #31414) diluted 1:5000 in 5% serum/PBS-T for 1 hour at room temperature. Plates were washed and developed with 1 Step Ultra TMB (Thermo. #34028). Plates were read on a Perkin Elmer Victor 1420 plate reader. […] (FIG. 3A).
(In general: ELISA stands for enzyme-linked immunosorbent assay.)

In assay [2] the target is T2, hN2 11-12 (human Notch2 amino acids 413-493 fused to hFc) (human, UniProt Q04721 413-493).
T2 construct: not shown: constant region of human IgG (hFc)
T2 sequence: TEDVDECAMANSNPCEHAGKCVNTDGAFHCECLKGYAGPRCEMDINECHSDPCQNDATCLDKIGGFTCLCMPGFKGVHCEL
The assay is described as above. As for the experimental part:
as §1

The target of assay [3] is T3, hN2 1-3 (human Notch2 amino acids 1-144 fused to hFc) (human, UniProt Q04721 26-144).
T3 construct: Supernatant of transfected HEK-293 cells, captured with anti-human Fc; not shown: constant region of human IgG (hFc)
Kind of assay: capture ELISA: hN2-hFc from HEK-293 supernatant on anti-human Fc plates, 59R1 Fab, HRP anti-human Fab [upper graph]. As for the experimental part:
as §1

The target in assay [4] is T4, hN2 1-4 (human Notch2 amino acids 1-181 fused to hFc) (human, UniProt Q04721 26-181).
T4 construct: not shown: constant region of human IgG (hFc)
Described as above. As for the experimental part:
as §1

The target of assay [5] is T5, hN2 1-8 (human Notch2 amino acids 1-341 fused to hFc) (human, UniProt Q04721 26-341).
T5 construct: not shown: constant region of human IgG (hFc)
T5 sequence: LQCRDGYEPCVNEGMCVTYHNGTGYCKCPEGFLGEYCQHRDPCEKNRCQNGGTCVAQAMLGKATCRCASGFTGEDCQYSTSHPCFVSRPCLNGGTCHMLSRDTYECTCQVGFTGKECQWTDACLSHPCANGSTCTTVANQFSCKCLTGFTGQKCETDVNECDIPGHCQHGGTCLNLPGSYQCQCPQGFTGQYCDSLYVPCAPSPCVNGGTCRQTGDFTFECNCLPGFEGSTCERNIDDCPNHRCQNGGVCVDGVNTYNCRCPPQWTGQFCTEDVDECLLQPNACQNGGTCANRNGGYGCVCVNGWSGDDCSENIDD
Described as above. On the procedure: as §1

Assay [6] deals with T6, hN2 1-9 (human Notch2 amino acids 1-378 fused to hFc) (human, UniProt Q04721 26-378).
T6 construct: not shown: constant region of human IgG (hFc)
T6 sequence: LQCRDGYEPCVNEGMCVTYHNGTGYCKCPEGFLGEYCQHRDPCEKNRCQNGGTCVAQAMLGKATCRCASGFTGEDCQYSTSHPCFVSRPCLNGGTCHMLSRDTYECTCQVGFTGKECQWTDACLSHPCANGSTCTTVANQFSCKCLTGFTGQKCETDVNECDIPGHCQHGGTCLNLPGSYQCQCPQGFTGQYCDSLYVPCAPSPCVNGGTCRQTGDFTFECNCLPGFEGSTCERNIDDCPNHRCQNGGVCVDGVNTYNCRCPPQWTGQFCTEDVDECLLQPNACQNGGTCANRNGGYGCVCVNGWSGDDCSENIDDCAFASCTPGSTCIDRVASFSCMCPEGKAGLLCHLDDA
The description is as above. As for the experimental part:
as §1

Assay [7] addresses T7, hN2 1-6 (human Notch2 amino acids 1-263 fused to hFc) (human, UniProt Q04721 26-263).
T7 construct: not shown: constant region of human IgG (hFc)
T7 sequence: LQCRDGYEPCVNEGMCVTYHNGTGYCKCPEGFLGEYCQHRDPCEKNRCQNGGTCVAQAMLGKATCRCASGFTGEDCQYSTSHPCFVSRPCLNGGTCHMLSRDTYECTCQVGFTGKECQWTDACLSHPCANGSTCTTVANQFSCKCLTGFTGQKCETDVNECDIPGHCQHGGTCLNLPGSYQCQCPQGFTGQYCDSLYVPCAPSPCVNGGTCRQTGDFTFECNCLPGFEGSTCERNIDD
The description is as above. As for the experimental part: as §1

The target of assay [8] is T8, hN2 1-7 (human Notch2 amino acids 1-301 fused to hFc) (human, UniProt Q04721 26-301).
T8 construct: not shown: constant region of human IgG (hFc)
T8 sequence: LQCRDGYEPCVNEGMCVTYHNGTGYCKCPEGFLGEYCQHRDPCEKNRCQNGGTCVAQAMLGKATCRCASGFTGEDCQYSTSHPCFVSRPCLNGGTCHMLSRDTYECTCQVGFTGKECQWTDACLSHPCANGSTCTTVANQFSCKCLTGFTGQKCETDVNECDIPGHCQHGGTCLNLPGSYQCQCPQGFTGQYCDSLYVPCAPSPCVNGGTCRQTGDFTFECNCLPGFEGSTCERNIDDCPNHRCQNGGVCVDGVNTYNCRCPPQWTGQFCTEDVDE
The assay is described as above. On the procedure:
as §1

Assay [9] addresses T9, hN2 1-5 (human Notch2 amino acids 1-221 fused to hFc) (human, UniProt Q04721 26-221).
T9 construct: not shown: constant region of human IgG (hFc)
Described as above. As for the experimental part:
as §1

Assay [10] addresses T10, human Notch1, full length, on transfected cells (human, UniProt P46531 19-2555).
T10 construct: also called hNotch1
Briefly: FACS on HEK 293 cells transiently transfected with Notch1 Full Length and GFP. As for the experimental part:
FIG. 15. In vitro characterization of 59R5. […] PC3 tumor cells were transiently transfected with human or mouse Notch receptor (hN2, human Notch2; mN2, murine Notch2; hN3, human Notch3; mN3, murine Notch3) and GFP inducible reporter construct. Transfected cells were incubated with different concentrations of antibody 59R1 and 59R5 in the presence of passively immobilized DLL4 Fc. […] Cells were also co-transfected with a plasmid encoding green fluorescent protein (GFP) to mark those cells that received transfected plasmid. Cells were incubated with 59R1 or 59R5 and fluorescent secondary antibody and then examined by FACS.
The binding epitope of 59R5 was determined. As was described in Example 3 for analysis of antibody 59R1, several point mutants were created within full-length Notch1, converting residues within EGF10 to the corresponding amino acids in human Notch 2. Mutants in full-length Notch sequences were generated by QuikChange® mutagenesis (Stratagene) and verified by sequencing. […] Cells were also co-transfected with a plasmid encoding green fluorescent protein (GFP) to mark those cells that received transfected plasmid. Cells were incubated with 59R1 or 59R5 and fluorescent secondary antibody and then examined by FACS. 59R1 and 59R5 were detected by PE-conjugated goat anti-human Fc gamma specific antibody (Jackson Immunochemicals, #109-116-170).

Assay [11] addresses T11, recombinant mouse Notch2 (EGF10-15) (mouse, UniProt O35516 375-605).
T11 construct: domain: EGF10-15; also called mNotch2; m-Notch2
T11 sequence (looked up): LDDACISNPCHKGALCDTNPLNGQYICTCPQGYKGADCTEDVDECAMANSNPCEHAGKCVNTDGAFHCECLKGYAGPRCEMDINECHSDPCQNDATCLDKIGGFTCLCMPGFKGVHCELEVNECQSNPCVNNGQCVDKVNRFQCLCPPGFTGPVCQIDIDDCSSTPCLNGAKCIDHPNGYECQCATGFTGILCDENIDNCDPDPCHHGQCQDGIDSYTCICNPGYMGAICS
Briefly: Biacore SPR. (In general: In SPR one partner is held on a chip, and binding of the other changes the refractive index at the surface.)

The target in assay [12] is T12, human Notch2 as used in the Biacore analysis of Table 6 (construct not stated) (human, UniProt Q04721 375-605, limits assumed).
T12 construct: also called h-Notch2
T12 sequence: T11 sequence (looked up) with V121I, I191V, D194E
Briefly: Biacore SPR.

For assay [13], the target named is T13, recombinant human Notch3 (EGF9-14) (human, UniProt Q9UM47 351-580).
T13 construct: The whole entry for hNotch3 is named here; also called hNotch3; h-Notch3
T13 sequence: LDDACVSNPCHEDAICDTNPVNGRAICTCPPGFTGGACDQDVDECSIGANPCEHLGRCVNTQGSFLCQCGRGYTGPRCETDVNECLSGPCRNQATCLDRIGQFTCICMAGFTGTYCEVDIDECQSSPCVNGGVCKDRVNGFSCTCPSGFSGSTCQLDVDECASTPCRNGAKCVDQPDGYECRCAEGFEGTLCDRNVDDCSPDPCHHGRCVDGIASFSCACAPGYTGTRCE
Briefly: Biacore SPR.

The target in assay [14] is T14, recombinant mouse Notch3 (EGF9-14) (mouse, UniProt Q61982 352-581).
T14 construct: domain: EGF9-14; also called mNotch3; m-Notch3
T14 sequence (looked up): T13 sequence with N22S, T153M, D193E, T227I
Briefly: Biacore SPR.

T10 sequence (P46531 19-2555 limits assumed): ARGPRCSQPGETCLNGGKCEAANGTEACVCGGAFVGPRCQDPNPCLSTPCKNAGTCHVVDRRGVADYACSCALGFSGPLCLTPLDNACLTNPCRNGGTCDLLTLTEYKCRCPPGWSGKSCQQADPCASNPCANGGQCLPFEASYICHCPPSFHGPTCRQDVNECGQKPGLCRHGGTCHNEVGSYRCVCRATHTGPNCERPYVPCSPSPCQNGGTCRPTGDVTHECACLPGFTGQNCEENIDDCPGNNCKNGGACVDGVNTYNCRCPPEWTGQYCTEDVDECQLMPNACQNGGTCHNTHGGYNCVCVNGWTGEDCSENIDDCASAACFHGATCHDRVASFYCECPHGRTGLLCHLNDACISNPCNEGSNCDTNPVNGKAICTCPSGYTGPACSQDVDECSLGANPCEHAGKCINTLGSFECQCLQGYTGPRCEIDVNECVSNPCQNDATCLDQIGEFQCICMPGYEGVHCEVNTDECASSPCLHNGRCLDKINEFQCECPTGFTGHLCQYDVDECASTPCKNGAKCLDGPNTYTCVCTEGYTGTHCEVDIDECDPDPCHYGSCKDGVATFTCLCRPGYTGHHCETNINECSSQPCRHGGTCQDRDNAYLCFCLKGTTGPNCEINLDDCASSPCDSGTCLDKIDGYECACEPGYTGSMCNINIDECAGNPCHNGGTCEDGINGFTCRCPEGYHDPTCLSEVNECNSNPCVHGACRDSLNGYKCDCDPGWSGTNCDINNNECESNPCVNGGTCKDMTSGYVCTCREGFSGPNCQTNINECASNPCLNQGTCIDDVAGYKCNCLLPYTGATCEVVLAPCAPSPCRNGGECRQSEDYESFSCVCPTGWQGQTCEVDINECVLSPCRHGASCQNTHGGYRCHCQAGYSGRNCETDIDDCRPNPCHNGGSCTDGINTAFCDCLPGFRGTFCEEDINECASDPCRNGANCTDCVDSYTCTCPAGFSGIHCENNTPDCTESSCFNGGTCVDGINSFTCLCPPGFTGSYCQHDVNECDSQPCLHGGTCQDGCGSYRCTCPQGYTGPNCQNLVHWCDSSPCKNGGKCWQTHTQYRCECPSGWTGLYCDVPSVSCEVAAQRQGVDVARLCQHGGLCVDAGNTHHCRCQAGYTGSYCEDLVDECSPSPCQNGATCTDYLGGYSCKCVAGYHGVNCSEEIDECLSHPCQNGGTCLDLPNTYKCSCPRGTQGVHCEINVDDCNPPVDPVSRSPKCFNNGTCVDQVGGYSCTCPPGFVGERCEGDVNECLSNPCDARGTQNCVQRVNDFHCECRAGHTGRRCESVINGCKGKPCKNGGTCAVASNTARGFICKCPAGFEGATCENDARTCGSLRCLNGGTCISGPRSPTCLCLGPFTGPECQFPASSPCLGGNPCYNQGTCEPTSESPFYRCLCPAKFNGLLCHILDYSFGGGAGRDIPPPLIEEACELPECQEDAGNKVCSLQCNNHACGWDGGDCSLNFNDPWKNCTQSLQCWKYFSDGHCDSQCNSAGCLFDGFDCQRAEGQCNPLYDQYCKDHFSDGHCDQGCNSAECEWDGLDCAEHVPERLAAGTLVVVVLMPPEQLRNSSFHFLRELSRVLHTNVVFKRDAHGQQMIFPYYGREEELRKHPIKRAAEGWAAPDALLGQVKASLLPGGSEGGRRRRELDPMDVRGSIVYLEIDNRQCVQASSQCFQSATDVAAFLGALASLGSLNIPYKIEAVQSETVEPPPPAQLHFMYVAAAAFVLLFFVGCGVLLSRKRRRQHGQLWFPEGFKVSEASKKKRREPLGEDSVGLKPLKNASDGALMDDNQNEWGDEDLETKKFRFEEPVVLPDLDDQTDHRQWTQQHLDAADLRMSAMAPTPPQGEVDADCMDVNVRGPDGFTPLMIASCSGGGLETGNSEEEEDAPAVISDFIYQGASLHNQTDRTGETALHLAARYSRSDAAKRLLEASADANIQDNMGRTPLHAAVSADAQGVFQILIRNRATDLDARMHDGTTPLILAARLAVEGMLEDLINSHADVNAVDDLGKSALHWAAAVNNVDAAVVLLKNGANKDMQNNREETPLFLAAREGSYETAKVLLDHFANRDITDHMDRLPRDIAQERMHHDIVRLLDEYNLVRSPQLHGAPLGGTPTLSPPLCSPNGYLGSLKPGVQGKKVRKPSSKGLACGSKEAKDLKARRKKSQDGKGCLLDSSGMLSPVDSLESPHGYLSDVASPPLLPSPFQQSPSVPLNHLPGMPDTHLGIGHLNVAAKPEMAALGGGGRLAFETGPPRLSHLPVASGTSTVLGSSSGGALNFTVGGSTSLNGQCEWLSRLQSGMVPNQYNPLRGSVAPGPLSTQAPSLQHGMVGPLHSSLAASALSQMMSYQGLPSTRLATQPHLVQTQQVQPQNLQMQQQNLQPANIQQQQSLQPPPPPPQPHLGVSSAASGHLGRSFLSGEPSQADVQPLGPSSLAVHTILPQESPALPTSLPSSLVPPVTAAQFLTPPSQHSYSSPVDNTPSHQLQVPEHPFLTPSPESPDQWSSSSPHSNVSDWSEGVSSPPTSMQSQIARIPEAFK

B1: 59R1 Fab (Fab, V domains shown)
VH: QVQLVESGGGLVQPGGSLRLSCAASGFTFSSSGMSWVRQAPGKGLEWVSVIASSGSNTYYADSVKGRFTISRDNSKNTLYLQMNSLRAEDTAVYYCARGIFFAIWGQGTLVTVSS
VL: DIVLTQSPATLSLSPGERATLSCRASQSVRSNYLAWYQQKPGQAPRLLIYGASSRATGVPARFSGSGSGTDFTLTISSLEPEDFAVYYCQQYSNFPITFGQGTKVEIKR
notes: also called Clone 1; 59R Fab antibody
Regarding B1, the binding result in assay [1], in [2], in assay [3], in [4], in assay [5] and in [6] was “no binding (tested: 10 ug/ml)” throughout. The binding result in [7], in assay [8] and in assay [9] was “no binding (tested: 10 ug/ml)” each time.

B2: 59R5 antibody (antibody, human IgG2, kappa, V domains shown)
VH: B1 VH with Q1E, G99S, F102Y, A103T, I104T
VL: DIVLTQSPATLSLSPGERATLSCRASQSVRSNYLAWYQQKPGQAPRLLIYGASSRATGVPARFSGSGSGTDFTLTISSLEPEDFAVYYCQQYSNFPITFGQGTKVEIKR
notes: Human IgG2; also called anti-Notch2/3 antibody 59R5; 59R5 IgG2
Turning to B2, the binding result in [10] was “no binding”. For the same molecule, the dissociation constant Kd in [11] came out at 260 pM; in assay [12], 50 pM; in [13], 220 pM; in assay [14] it was 290 pM.

One may read the Kd as a measure of binding affinity in units of concentration.
